Measured values: PMC2715225 (Nucleic Acids Research, 2009)

Target: T1, His6-tagged human PSF (human, UniProt P23246 1-707)
T1 sequence (looked up): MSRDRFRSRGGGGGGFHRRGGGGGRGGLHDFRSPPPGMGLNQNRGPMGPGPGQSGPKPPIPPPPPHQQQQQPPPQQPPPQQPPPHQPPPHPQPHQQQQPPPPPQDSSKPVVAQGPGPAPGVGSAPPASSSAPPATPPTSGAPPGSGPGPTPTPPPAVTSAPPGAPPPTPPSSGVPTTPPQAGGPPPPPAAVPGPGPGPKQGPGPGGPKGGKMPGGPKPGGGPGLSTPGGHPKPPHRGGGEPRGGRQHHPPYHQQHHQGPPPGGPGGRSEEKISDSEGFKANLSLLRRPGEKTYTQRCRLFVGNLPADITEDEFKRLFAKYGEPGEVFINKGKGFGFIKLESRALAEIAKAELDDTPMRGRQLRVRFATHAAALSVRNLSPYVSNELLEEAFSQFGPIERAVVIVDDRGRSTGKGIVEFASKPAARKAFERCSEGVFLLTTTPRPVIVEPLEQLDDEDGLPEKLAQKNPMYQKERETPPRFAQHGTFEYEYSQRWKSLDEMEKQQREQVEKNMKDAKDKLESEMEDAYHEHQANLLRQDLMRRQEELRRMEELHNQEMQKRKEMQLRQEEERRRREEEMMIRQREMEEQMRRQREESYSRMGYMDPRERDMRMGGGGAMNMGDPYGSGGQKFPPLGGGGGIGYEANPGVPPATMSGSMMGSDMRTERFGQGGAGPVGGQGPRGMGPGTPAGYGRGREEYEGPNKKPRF
Experiment: pull-down

B1: Human RAD51 without His6 tag (natural protein, UniProt Q06609 1-339, looked up)
chain: MAMQMQLEANADTSVEEESFGPQPISRLEQCGINANDVKKLEEAGFHTVEAVAYAPKKELINIKGISEAKADKILAEAAKLVPMGFTTATEFHQRRSEIIQITTGSKELDKLLQGGIETGSITEMFGEFRTGKTQICHTLAVTCQLPIDRGGGEGKAMYIDTEGTFRPERLLAVAERYGLSGSDVLDNVAYARAFNTDHQTQLLYQASAMMVESRYALLIVDSATALYRTDYSGRGELSARQMHLARFLRMLLRLADEFGVAVVITNQVVAQVDGAAMFAADPKKPIGGNIIAHASTTRLYLRKGRGETRICKIYDSPCLPEAEAMFAINADGVGDAKD
- stoichiometry N: ~1 PSF:RAD51
